From US20070270364 come the findings set out here.

This data set has as its target GST-p68 fusion polypeptides.

B1: histone acetyltransferase (HAT) region of p300 (protein)
chain: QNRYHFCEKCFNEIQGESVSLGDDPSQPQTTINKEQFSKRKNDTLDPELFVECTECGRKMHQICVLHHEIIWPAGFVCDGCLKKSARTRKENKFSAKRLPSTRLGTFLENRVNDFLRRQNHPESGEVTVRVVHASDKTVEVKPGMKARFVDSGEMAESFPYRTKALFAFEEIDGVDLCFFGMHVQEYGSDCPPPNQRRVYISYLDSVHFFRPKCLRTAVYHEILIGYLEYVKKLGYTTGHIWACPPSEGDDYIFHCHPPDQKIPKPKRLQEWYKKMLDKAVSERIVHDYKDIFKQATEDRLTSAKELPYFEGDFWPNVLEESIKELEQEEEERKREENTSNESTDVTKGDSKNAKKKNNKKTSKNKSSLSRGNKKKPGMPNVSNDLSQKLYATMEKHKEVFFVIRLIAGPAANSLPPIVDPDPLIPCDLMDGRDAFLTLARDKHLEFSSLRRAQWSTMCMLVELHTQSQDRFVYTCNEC
B1: the “in vitro 14C-acetylation of GST-p68 fusion polypeptides (autoradiogram)” value is listed as “p300 indeed acetylated p68 polypeptides exclusively within its N-terminal 80 amino acids”.
